US20170247465A1, “COMBINATION THERAPY FOR TREATMENT OF CANCER” (OncoMed Pharmaceuticals, Inc., priority 2014, published 2017)

Assay: Phase 1b study of vantictumab in combination with docetaxel in NSCLC patients / Phase 1 program
Assay type: in vivo
Settings: Cohorts 1 and 2: vantictumab 5 and 10 mg/kg Day 1 of 21-day cycle with docetaxel 75 mg/m^2
From the text: The study is an open-label Phase 1b dose-escalation study of vantictumab in combination with docetaxel in patients with previously treated recurrent or advanced non-small cell lung cancer (NSCLC). The primary objectives of the study are to determine the safety and the maximum tolerated dose of vantictumab in combination with docetaxel. To identify a recommended Phase 2 dose for vantictumab in combination with docetaxel. The secondary objectives are to characterize the pharmacokinetics (PK) of vantictumab when administered in combination with docetaxel, to characterize the immunogenicity of vantictumab, and to make preliminary assessment of vantictumab efficacy when administered in combination with docetaxel.
Vantictumab is administered on Day 1 of each 21-day cycle. The dose levels of vantictumab for Cohorts 1 and 2 were 5 mg/kg and 10 mg/kg, respectively. For Cohorts 1 and 2, docetaxel (75 mg/m^2) is administered IV on Day 1 of each cycle. […] Patients of Cohorts 3 and 4 will be administered vantictumab at 2 mg/kg and 4 mg/kg once every 3 weeks, respectively. No dose escalation of vantictumab will be allowed within a dose cohort. A staggered dosing regimen will be evaluated in Cohorts 3 and 4. Docetaxel (75 mg/m^2) will be administered IV on Day 3 of each cycle.

B1: OMP-18R5: anti-FZD antibody, IgG2, also known as vantictumab; heavy chain SEQ ID NO:3, light chain SEQ ID NO:4 (antibody)
heavy: EVQLVESGGGLVQPGGSLRLSCAASGFTFSHYTLSWVRQAPGKGLEWVSVISGDGSYTYYADSVKGRFTISSDNSKNTLYLQMNSLRAEDTAVYYCARNFIKYVFANWGQGTLVTVSSASTKGPSVFPLAPCSRSTSESTAALGCLVKDYFPEPVTVSWNSGALTSGVHTFPAVLQSSGLYSLSSVVTVPSSNFGTQTYTCNVDHKPSNTKVDKTVERKCCVECPPCPAPPVAGPSVFLFPPKPKDTLMISRTPEVTCVVVDVSHEDPEVQFNWYVDGVEVHNAKTKPREEQFNSTFRVVSVLTVVHQDWLNGKEYKCKVSNKGLPAPIEKTISKTKGQPREPQVYTLPPSREEMTKNQVSLTCLVKGFYPSDIAVEWESNGQPENNYKTTPPMLDSDGSFFLYSKLTVDKSRWQQGNVFSCSVMHEALHNHYTQKSLSLSPGK
light: DIELTQPPSVSVAPGQTARISCSGDNIGSFYVHWYQQKPGQAPVLVIYDKSNRPSGIPERFSGSNSGNTATLTISGTQAEDEADYYCQSYANTLSLVFGGGTKLTVLGQPKAAPSVTLFPPSSEELQANKATLVCLISDFYPGAVTVAWKADSSPVKAGVETTTPSKQSNNKYAASSYLSLTPEQWKSHRSYSCQVTHEGSTVEKTVAPTECS
adverse events leading to discontinuation: fragility fractures observed
